The target in assay [1] is T1, human IL-33 (R&D Systems, #3625-IL-010/CF) (human) (UniProt O95760).
T1 sequence (looked up): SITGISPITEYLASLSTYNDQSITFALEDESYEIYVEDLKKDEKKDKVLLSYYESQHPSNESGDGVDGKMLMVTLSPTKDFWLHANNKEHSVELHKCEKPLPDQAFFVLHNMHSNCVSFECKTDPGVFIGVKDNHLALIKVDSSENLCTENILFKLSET

Assay [2] deals with T1, human IL-33 (R&D Systems, #3625-IL-010/CF) (human). The assay is described as follows: SPR Biacore T200, 37 C. On the technique in general: Surface plasmon resonance follows binding to a sensor surface in real time, without labels.
Assay [3] shares this target. This is another data set of the same source.
Assay [4] has the same target. The source holds these as a separate data set.
The target is the same in assay [5]. This is another data set of the same source.
For assay [6] the target is unchanged. The assay is described as follows: SPR Biacore T200, 25 C.
Assay [7] has as its target T2, biotinylated human IL-33 (human) (UniProt O95760).
T2 sequence (biotin-labeled with EZ-LINK NHS-PEG4-Biotin, looked up): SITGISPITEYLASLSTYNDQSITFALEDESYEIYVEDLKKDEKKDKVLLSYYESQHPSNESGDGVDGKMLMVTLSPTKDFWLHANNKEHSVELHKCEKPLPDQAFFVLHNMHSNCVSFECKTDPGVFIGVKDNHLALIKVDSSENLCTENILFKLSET
The assay is described as follows: competitive ELISA, biotin-huIL-33 to coated hST2-Fc. For orientation: In an ELISA, binding on a coated surface is turned into a signal by an enzyme label.

Assay [8] addresses T1, human IL-33 (R&D Systems, #3625-IL-010/CF) (human). This is another data set of the same source.

B1: H4H9663P (antibody, from another filing, IgG4, V domains shown)
VH: QVQLVQSGAEVKKPGASVKVSCKASGYTFTGHYMYWMRQAPGQGLEWMGWINPNSGGTNYAQKFQDRVTMTRDTSISTAYMELSRLRSDDTAVYYCARGRYGSSWYGGFEYWGQGTLVTVSS
VL: DIQMTQSPSSVSASVGDRVTITCRASQGITSWLAWYQQKPGKAPNLLIYAAASLQSGVPSRFSGSGSGTDFTLTISSLQPEDFTTYYCQQAYSLPLTFGGGTKVEIK
In general, Kd refers to the concentration at which binding is half-saturated. A higher Kd goes with weaker binding. What is called koff is the first-order rate constant of dissociation. One may read the kon as a measure of how fast the partners come together. As a reminder, the IC50 is the midpoint of a concentration-inhibition curve. Low readings indicate higher potency, high ones lower potency. With B1, the IC50; SEAP reporter (OD 620), HEK-BLUE IL-33/IL-1beta cells, 10 pM hIL-33 in assay [1] came to 1.5e-09 M. Further, in assay [2], the Kd worked out at 0.517 nM, the koff was found to be 0.00161 s⁻¹, the kon amounted to 3.11e+06 M⁻¹ s⁻¹ and the t1/2 was determined as 7 min. This molecule also showed a Ph-p38 MFI at 0.4 nM Ab (500 pM human IL-33, primary basophils) in assay [3] of 123 MFI. Besides, the IC50; IFN-gamma ELISA, primary human NK cells, 260 pM hIL-33 + IL-12 in assay [4] was determined as 4.6e-09 M. The Ph-p38 MFI at 2 nM Ab (500 pM human IL-33, primary basophils) in assay [5] came to 80 MFI. In assay [6], this molecule yielded a Kd of 0.558 nM, a koff of 0.000937 s⁻¹, an association rate constant (kon) of 1.68e+06 M⁻¹ s⁻¹ and a t1/2 of 12 min. In assay [7], this molecule returned an IC50 of 0.44 nM and a Maximum Blocking of 82%.

B2: H4H9670P (antibody, from another filing, IgG4, V domains shown)
VH: EVQLVESGGGLVQPGGSLRLSCAASGFTLSSYAMSWVRQAPGKGLEWVSAISGSGGSTYYADSVKGRFTISRDNSKNSLYLQLNSLRAEDTAVYYCAKTLYTTSWYGGFQHWGQGTLVTVSS
VL: DIQMTQSPSSVSASIGDRVTITCRASQGISSWLAWYQQKPGKVPKLLIYAASSLQSGFPSRFSGSGSGTDFTLTISSLQPEDFATYYCQQTHSFPWTVGQGTKVEIK
B2: the IC50; SEAP reporter (OD 620), HEK-BLUE IL-33/IL-1beta cells, 10 pM hIL-33 in assay [1] was 2.6e-09 M. In assay [2], the dissociation constant (Kd) came to 0.519 nM, the koff was 0.000663 s⁻¹, the association rate constant (kon) was determined as 1.28e+06 M⁻¹ s⁻¹ and the t1/2 came to 17 min. The molecule also gave a Ph-p38 MFI at 0.4 nM Ab (500 pM human IL-33, primary basophils) in assay [3] of 118 MFI. For the same molecule, the Ph-p38 MFI at 2 nM Ab (500 pM human IL-33, primary basophils) in assay [5] was determined as 90 MFI. In assay [6], this molecule gave a dissociation constant Kd of 0.761 nM, an off-rate (koff) of 0.000517 s⁻¹, a kon of 680000 M⁻¹ s⁻¹ and a t1/2 of 22 min. In assay [7], this molecule yielded an IC50 of 0.42 nM and a Maximum Blocking of 80%.

B3: H4H9665P (antibody, from another filing, IgG4, V domains shown)
VH: EVQLVESGGGLVQPGGSLRLSCAASGFTFSNYAMTWVRQAPGKGLEWVSTISGSGDNTYYADSVQGRFTISRGHSKNTLYLQMNSLRAEDTAVYYCAKPTYSRSWYGAFDFWGQGTMVTVSS
VL: DIQMTQSPSSVSASVGDRVTITCRASQGISSWLAWYQQKPGKAPQLLIYAASRLQSGVPSRFWGSGSGTDFTLTISSLQPEDFATYYCQQANNFPFTFGPGTKVDIK
As for B3, the IC50; SEAP reporter (OD 620), HEK-BLUE IL-33/IL-1beta cells, 10 pM hIL-33 in assay [1] came out at 1.1e-09 M. This molecule also returned an IC50, IL-33-induced phospho-p38 in primary human basophils, 500 pM hIL-33 in assay [8] of 2.4e-09 M. Further, in assay [2], the dissociation constant Kd was 1 nM, the koff is 0.00235 s⁻¹, the kon is 2.35e+06 M⁻¹ s⁻¹ and the t1/2 was 5 min. In assay [3], this molecule registered a Ph-p38 MFI at 0.4 nM Ab (500 pM human IL-33, primary basophils) of 106 MFI. Also, the Ph-p38 MFI at 2 nM Ab (500 pM human IL-33, primary basophils) in assay [5] worked out at 105 MFI. In assay [6], this molecule registered a dissociation constant (Kd) of 1.25 nM, an off-rate constant (koff) of 0.00116 s⁻¹, an association rate constant (kon) of 931000 M⁻¹ s⁻¹ and a t1/2 of 10 min. In assay [7], the half-inhibitory concentration (IC50) turned out to be 0.7 nM and the Maximum Blocking amounted to 63%.

The record behind these values is US20190092852A1.
